Legend:
[1] = molecular target: rat EphA4 in rat hippocampal neurons (rat, UniProt D3ZZK3 20-986); test: cell-based or functional assay
[2] = molecular target: T1, mouse EphA4 extracellular region-SEAP-His protein (mouse); test: competition ELISA, competitor biotinylated mouse Ephrin B2-Fc; first value printed
Description: (§1) Antibody A-Fab and antibody A-F(ab′)₂ obtained in Example 5 were evaluated for their inhibitory activity against the binding between EphA4 and its ligand according to the following steps. Each well of a 96-well plate (Nunc) was coated with an anti-alkaline phosphatase antibody (Thermo Fisher Scientific). After incubation overnight at 4° C., each well was blocked with 1% BlockAce (DS Pharma Biomedical) at room temperature for 1 hour. After washing with 0.05% Tween 20/PBS (Thermo Fisher Scientific) three times, the mouse EphA4 extracellular region-SEAP-His protein obtained by the method of Example 1 was added (final concentration: 10 nM) to each well and incubated at room temperature for 1 hour. After washing three times, a ligand and serially diluted antibody A (0, 0.003, 0.01, 0.03, 0.1, 0.3, 1, 3, 10, 30, 100, 300, 1000, and 3000 nM), antibody A-Fab (0, 0.003, 0.01, 0.03, 0.1, 0.3, 1, 3, 10, 30, 100, 300, 1000, and 3000 nM), antibody A-F(ab′)₂ (0, 0.003, 0.01, 0.03, 0.1, 0.3, 1, 3, 10, 30, 100, 300, 1000, and 3000 nM), or the EphA4 inhibitor KYL peptide ([…], 0, 0.0003, 0.001, 0.003, 0.01, 0.03, 0.1, 0.3, 1, 3, 10, 30, 100, 300, 1000, and 3000 μM, its synthesis was outsourced to Toray Research Center) were added to each well. […] The absorbance at 450 nm was read using a microplate reader (Molecular Devices or PerkinElmer). […]

[3] = molecular target: T1, mouse EphA4 extracellular …; test: competition ELISA, competitor biotinylated mouse Ephrin B2-Fc; alternative value in brackets
Description: as §1

[4] = molecular target: T1, mouse EphA4 extracellular …; test: SPR (Biacore T200), mouse EphA4 extracellular region-SEAP-His captured on an anti-His antibody CM5 chip, antibody as analyte at 0.6-50 nM, 1:1 fit
Description: Next, the binding affinity of antibody A-Fab and antibody A-F(ab′)₂ for mouse and human EphA4 was determined by surface plasmon resonance (SPR) using Biacore T200 (GE Healthcare). Antibody A obtained in Example 1 was used as a control for the comparison of each fragment. First, an anti-His tag antibody was immobilized on sensor chip CM5. The immobilization of the anti-His tag antibody on sensor chip CM5 was performed by the amine coupling method using N-hydroxysuccinimide (NHS) and N-ethyl-N′-(3-dimethylaminopropyl)carbodiimide hydrochloride (EDC). Ethanolamine was used in blocking (the sensor chip and the reagents for immobilization were all manufactured by GE Healthcare). The antibody was diluted with a buffer solution for immobilization (10 mM sodium acetate, pH 4.5) into 3 μg/mL and immobilized on the sensor chip according to the protocol attached to Biacore T200.
Mouse or human EphA4 extracellular region-SEAP-His protein was diluted with a running buffer solution HBS-EP (GE Healthcare, BR-1001-88), injected onto a flow cell for 120 seconds, and captured (amount of the protein captured: approximately 10 to 20 RU). Subsequently, antibody A (50, 16.7, 5.6, 1.9, 0.6, and 0 nM), antibody A-Fab (500, 166.7, 55.6, 18.5, 6.2, and 0 nM), or antibody A-F(ab′)₂ (50, 16.7, 5.6, 1.9, 0.6, and 0 nM) serially diluted using HBS-EP was added to the sensor chip for 120 seconds. Binding reaction curves were sequentially observed at the time of the addition (association phase, for 120 sec) and after the completion of the addition (dissociation phase, for 900 sec). After the completion of each observation, the sensor chip was regenerated by the addition of 3 M MgCl₂ (Wako Pure Chemical Industries) (for 30 sec). The obtained binding reaction curves were subjected to fitting analysis with 1:1 binding models using software BIA evaluation attached to the system to calculate the binding affinity (KD=kd/ka) for mouse and human EphA4.

[5] = molecular target: T2, human EphA4 extracellular region-SEAP-His protein (human, UniProt P54764 20-547); test: SPR (Biacore A100), antibody A captured on a rat anti-mouse IgG1 CM5 chip, human EphA4 extracellular region-SEAP-His as analyte at 0.8-50 nM, 1:1 fit
T2 construct: also called hEphA4-SEAP-His
T2 sequence (P54764 20-547): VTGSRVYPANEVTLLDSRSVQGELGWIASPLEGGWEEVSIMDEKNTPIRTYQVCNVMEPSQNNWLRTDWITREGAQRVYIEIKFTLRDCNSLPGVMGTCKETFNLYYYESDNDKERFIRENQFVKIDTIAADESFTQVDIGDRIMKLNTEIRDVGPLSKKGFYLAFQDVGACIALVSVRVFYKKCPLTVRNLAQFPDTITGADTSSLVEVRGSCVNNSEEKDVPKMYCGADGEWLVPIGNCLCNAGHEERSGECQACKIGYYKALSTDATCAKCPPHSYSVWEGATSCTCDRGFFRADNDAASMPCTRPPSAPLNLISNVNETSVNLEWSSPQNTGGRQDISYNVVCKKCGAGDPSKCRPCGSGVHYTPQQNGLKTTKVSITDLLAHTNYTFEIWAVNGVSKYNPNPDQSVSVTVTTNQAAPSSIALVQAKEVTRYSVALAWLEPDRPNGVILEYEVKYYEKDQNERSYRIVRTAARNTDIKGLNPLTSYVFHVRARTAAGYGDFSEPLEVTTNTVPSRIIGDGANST
Description: The binding affinity of antibody A obtained in Example 1 for mouse and human EphA4 was determined by surface plasmon resonance (SPR) using Biacore A100 (GE Healthcare). First, a rat anti-mouse IgG₁ antibody produced with a conventional procedure by immunizing rat with a mouse IgG₁ antibody was immobilized on sensor chip CM5. The immobilization of the rat anti-mouse IgG1 antibody on sensor chip CM5 was performed by the amine coupling method using N-hydroxysuccinimide (NHS) and N-ethyl-N′-(3-dimethylaminopropyl)carbodiimide hydrochloride (EDC). Ethanolamine was used in blocking (the sensor chip and the reagents for immobilization were all manufactured by GE Healthcare). The antibody was diluted with a buffer solution for immobilization (10 mM sodium acetate, pH 4.5) into 1 to 2 μg/mL and immobilized on the sensor chip according to the protocol attached to Biacore A100. Antibody A was diluted with a running buffer solution HBS-EP (GE Healthcare, BR-1001-88), injected onto a flow cell for 120 seconds, and captured (amount of the antibody captured: approximately 70 to 100 RU). Subsequently, mouse or human EphA4 extracellular region-SEAP-His serially diluted in the range of 50, 25, 12.5, 6.3, 3.1, 1.6, 0.8, and 0 nM using HBS-EP was added to the sensor chip for 120 seconds. […]

T1 sequence (chain, as listed by the source limits assumed): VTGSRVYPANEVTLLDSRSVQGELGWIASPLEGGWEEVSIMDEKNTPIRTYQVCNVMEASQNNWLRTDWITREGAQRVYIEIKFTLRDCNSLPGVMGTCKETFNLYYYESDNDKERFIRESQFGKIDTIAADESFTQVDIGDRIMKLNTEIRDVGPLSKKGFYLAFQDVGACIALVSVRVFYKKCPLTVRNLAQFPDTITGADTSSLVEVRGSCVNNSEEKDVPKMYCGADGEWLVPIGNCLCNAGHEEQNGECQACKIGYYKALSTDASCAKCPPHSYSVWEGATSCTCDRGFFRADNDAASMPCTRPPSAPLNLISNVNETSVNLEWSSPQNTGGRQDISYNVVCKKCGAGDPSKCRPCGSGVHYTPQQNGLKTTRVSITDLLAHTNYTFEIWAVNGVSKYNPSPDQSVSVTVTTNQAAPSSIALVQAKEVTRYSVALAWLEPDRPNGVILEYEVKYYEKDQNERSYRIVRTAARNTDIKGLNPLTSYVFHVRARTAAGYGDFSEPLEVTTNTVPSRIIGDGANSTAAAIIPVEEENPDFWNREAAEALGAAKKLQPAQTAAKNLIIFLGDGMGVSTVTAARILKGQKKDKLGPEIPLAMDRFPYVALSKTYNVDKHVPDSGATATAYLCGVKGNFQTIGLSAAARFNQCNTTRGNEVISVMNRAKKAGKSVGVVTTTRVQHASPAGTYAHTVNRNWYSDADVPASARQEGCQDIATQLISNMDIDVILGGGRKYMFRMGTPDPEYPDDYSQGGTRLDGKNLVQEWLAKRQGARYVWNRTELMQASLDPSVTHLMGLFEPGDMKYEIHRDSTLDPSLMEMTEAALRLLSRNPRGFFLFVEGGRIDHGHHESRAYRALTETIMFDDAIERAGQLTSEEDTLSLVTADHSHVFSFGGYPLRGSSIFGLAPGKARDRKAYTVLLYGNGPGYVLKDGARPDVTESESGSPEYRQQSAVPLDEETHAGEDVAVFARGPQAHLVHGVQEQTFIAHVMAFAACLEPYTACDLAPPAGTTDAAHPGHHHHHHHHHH

IC50 of suppression of EphA4 autophosphorylation induced by mouse EphrinA1 in the hippocampal neurons [1]: 24.2 nM | IC50 [2]: 2.6 nM | IC50 [3]: 3.6 nM | Kd [4]: 0.147 nM | koff [4]: 0.000423 s⁻¹ | kon [4]: 2.88e+06 M⁻¹ s⁻¹ | koff [5]: 0.000152 s⁻¹ | kon [5]: 210000 M⁻¹ s⁻¹
B1: antibody A (antibody, mouse IgG1, kappa, V domains shown)
VH: QIQLVQSGPELKKPGETVKISCKASGYTFTDYSMHWVKQAPGKGLKWMGWINTETGEPTYADDFKGRFAFSLETSASTAYLQINNLKNEDTATYFCARIPLYYYGSRYWYFDVWGAGTTVTVSS
VL: DIQMTQSPASLSVSVGETVTITCRASENIYRNLAWYQQKQGKSPQLLVYAATNLADGVPSRFSGSGSGTQYSLKINSLQSEDFGSYYCQHFWGTPWTFGGGTKLEIKR
notes: mouse IgG1 heavy chain, kappa light chain; purified from hybridoma supernatant; also called anti-EphA4 monoclonal antibody; antibody A-IgG

Source: patent US20190077860A1 (EISAI R AND D MANAGEMENT, published 2019)
